Results taken from the supplement of paper PMC9112550, “Optimization of the antimicrobial peptide Bac7 by deep mutational scanning” (BMC Biology, 2022).

Test system: Escherichia coli TOP10
Assay: shrunken log2 fold change of peptide-encoding DNA abundance (4.5 h post-induction vs induction); higher = less antimicrobial activity (less host growth inhibition)
Conditions: time post-induction: 4.5 h; library: site-saturation at positions 5, 18, 19, 20
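Also: peptides expressed intracellularly from a pBAD plasmid library in pooled LB shake-flask culture, induced with 0.3% L-arabinose, DNA abundance read by NGS, three biological replicates, DESeq2 with apeglm shrinkage.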

Question: Which “shrunken log2 fold change” value does the source give for RRIRRRPPRLPRPRPRPEMRPRP here?
Answer: The value was 0.0735.

Question: Which “shrunken log2 fold change” value does the source give for RRIRRRPPRLPRPRPRPENGPRP here?
Answer: Its value is 0.401.

Question: How did the “shrunken log2 fold change” value turn out when RRIRRRPPRLPRPRPRPENWPRP was run?
Answer: Its value is 0.153.

Question: How did the “shrunken log2 fold change” value turn out when RRIRRRPPRLPRPRPRPEREPRP was run?
Answer: Its value is 0.297.

Question: RRIRRRPPRLPRPRPRPERYPRP was tested. Which “shrunken log2 fold change” value did it give?
Answer: Its value is 0.00129.

Question: RRIRRRPPRLPRPRPRPESPPRP was tested. Which “shrunken log2 fold change” value did it give?
Answer: The value was 0.5.

Question: With RRIRRRPPRLPRPRPRPESQPRP as the sequence, how does the “shrunken log2 fold change” value read?
Answer: Its value is 0.303.

Question: RRIRRRPPRLPRPRPRPFAHPRP was tested. Which “shrunken log2 fold change” value did it give?
Answer: Its value is -0.00279.

Question: RRIRRRPPRLPRPRPRPFAIPRP was tested. Which “shrunken log2 fold change” value did it give?
Answer: The value was 0.102.

Question: How did the “shrunken log2 fold change” value turn out when RRIRRRPPRLPRPRPRPFCDPRP was run?
Answer: Its value is -0.0358.

Question: How did the “shrunken log2 fold change” value turn out when RRIRRRPPRLPRPRPRPFCHPRP was run?
Answer: Its value is -0.17.

Question: With RRIRRRPPRLPRPRPRPFDQPRP as the sequence, how does the “shrunken log2 fold change” value read?
Answer: Its value is 0.0321.

Question: For RRIRRRPPRLPRPRPRPFEQPRP, which “shrunken log2 fold change” value is on record?
Answer: Its value is 0.105.

Question: How did the “shrunken log2 fold change” value turn out when RRIRRRPPRLPRPRPRPFGPPRP was run?
Answer: The value was 0.165.

Question: RRIRRRPPRLPRPRPRPFHQPRP was tested. Which “shrunken log2 fold change” value did it give?
Answer: The value was -0.191.

Question: For RRIRRRPPRLPRPRPRPFICPRP, which “shrunken log2 fold change” value is on record?
Answer: The value was -0.0336.

Question: With RRIRRRPPRLPRPRPRPFIIPRP as the sequence, how does the “shrunken log2 fold change” value read?
Answer: Its value is -0.323.

Question: Which “shrunken log2 fold change” value does the source give for RRIRRRPPRLPRPRPRPFIVPRP here?
Answer: Its value is -0.0553.

Question: For RRIRRRPPRLPRPRPRPFKRPRP, which “shrunken log2 fold change” value is on record?
Answer: The value was -2.89e-05.

Question: Which “shrunken log2 fold change” value does the source give for RRIRRRPPRLPRPRPRPFLMPRP here?
Answer: Its value is 0.0572.

Question: Which “shrunken log2 fold change” value does the source give for RRIRRRPPRLPRPRPRPFLPPRP here?
Answer: The value was 0.111.

Question: For RRIRRRPPRLPRPRPRPFLWPRP, which “shrunken log2 fold change” value is on record?
Answer: Its value is 0.173.

Question: How did the “shrunken log2 fold change” value turn out when RRIRRRPPRLPRPRPRPFNAPRP was run?
Answer: Its value is -0.0138.

Question: With RRIRRRPPRLPRPRPRPFNLPRP as the sequence, how does the “shrunken log2 fold change” value read?
Answer: Its value is -0.109.

Question: With RRIRRRPPRLPRPRPRPFNTPRP as the sequence, how does the “shrunken log2 fold change” value read?
Answer: The value was -0.119.

Question: Which “shrunken log2 fold change” value does the source give for RRIRRRPPRLPRPRPRPFPNPRP here?
Answer: Its value is 0.558.

Question: With RRIRRRPPRLPRPRPRPFQQPRP as the sequence, how does the “shrunken log2 fold change” value read?
Answer: The value was 0.282.

Question: Which “shrunken log2 fold change” value does the source give for RRIRRRPPRLPRPRPRPFQWPRP here?
Answer: Its value is 0.194.

Question: How did the “shrunken log2 fold change” value turn out when RRIRRRPPRLPRPRPRPFRDPRP was run?
Answer: The value was 0.506.

Question: RRIRRRPPRLPRPRPRPFTHPRP was tested. Which “shrunken log2 fold change” value did it give?
Answer: The value was -0.174.

Question: RRIRRRPPRLPRPRPRPFTTPRP was tested. Which “shrunken log2 fold change” value did it give?
Answer: The value was -0.0176.

Question: How did the “shrunken log2 fold change” value turn out when RRIRRRPPRLPRPRPRPFVIPRP was run?
Answer: Its value is -0.0863.

Question: Which “shrunken log2 fold change” value does the source give for RRIRRRPPRLPRPRPRPFVNPRP here?
Answer: Its value is -0.049.

Question: RRIRRRPPRLPRPRPRPFWHPRP was tested. Which “shrunken log2 fold change” value did it give?
Answer: The value was -0.0292.

Question: How did the “shrunken log2 fold change” value turn out when RRIRRRPPRLPRPRPRPFYLPRP was run?
Answer: The value was -0.226.

Question: With RRIRRRPPRLPRPRPRPFYTPRP as the sequence, how does the “shrunken log2 fold change” value read?
Answer: The value was -0.327.

Question: Which “shrunken log2 fold change” value does the source give for RRIRRRPPRLPRPRPRPGCRPRP here?
Answer: Its value is 0.459.

Question: With RRIRRRPPRLPRPRPRPGEGPRP as the sequence, how does the “shrunken log2 fold change” value read?
Answer: The value was 0.747.

Question: For RRIRRRPPRLPRPRPRPGEHPRP, which “shrunken log2 fold change” value is on record?
Answer: The value was 0.291.

Question: For RRIRRRPPRLPRPRPRPGFEPRP, which “shrunken log2 fold change” value is on record?
Answer: Its value is 0.293.

Question: For RRIRRRPPRLPRPRPRPGGPPRP, which “shrunken log2 fold change” value is on record?
Answer: The value was 0.321.

Question: With RRIRRRPPRLPRPRPRPGGSPRP as the sequence, how does the “shrunken log2 fold change” value read?
Answer: Its value is 0.0293.

Question: For RRIRRRPPRLPRPRPRPGHDPRP, which “shrunken log2 fold change” value is on record?
Answer: Its value is 0.0801.

Question: For RRIRRRPPRLPRPRPRPGHQPRP, which “shrunken log2 fold change” value is on record?
Answer: Its value is 0.342.

Question: RRIRRRPPRLPRPRPRPGKDPRP was tested. Which “shrunken log2 fold change” value did it give?
Answer: Its value is -0.0528.

Question: For RRIRRRPPRLPRPRPRPGKGPRP, which “shrunken log2 fold change” value is on record?
Answer: Its value is 0.609.

Question: How did the “shrunken log2 fold change” value turn out when RRIRRRPPRLPRPRPRPGLCPRP was run?
Answer: Its value is 0.457.

Question: For RRIRRRPPRLPRPRPRPGLVPRP, which “shrunken log2 fold change” value is on record?
Answer: The value was 0.279.

Question: RRIRRRPPRLPRPRPRPGLWPRP was tested. Which “shrunken log2 fold change” value did it give?
Answer: Its value is 0.622.

Question: For RRIRRRPPRLPRPRPRPGMWPRP, which “shrunken log2 fold change” value is on record?
Answer: The value was 0.59.

Question: RRIRRRPPRLPRPRPRPGNHPRP was tested. Which “shrunken log2 fold change” value did it give?
Answer: The value was 0.0323.

Question: For RRIRRRPPRLPRPRPRPGRPPRP, which “shrunken log2 fold change” value is on record?
Answer: Its value is 0.259.

Question: RRIRRRPPRLPRPRPRPGRSPRP was tested. Which “shrunken log2 fold change” value did it give?
Answer: Its value is -0.104.

Question: Which “shrunken log2 fold change” value does the source give for RRIRRRPPRLPRPRPRPGSAPRP here?
Answer: Its value is 0.378.

Question: RRIRRRPPRLPRPRPRPGSPPRP was tested. Which “shrunken log2 fold change” value did it give?
Answer: Its value is 0.107.

Question: For RRIRRRPPRLPRPRPRPGTTPRP, which “shrunken log2 fold change” value is on record?
Answer: Its value is 0.462.

Question: With RRIRRRPPRLPRPRPRPGWNPRP as the sequence, how does the “shrunken log2 fold change” value read?
Answer: The value was 0.257.

Question: RRIRRRPPRLPRPRPRPGYKPRP was tested. Which “shrunken log2 fold change” value did it give?
Answer: Its value is -0.0679.

Question: RRIRRRPPRLPRPRPRPGYSPRP was tested. Which “shrunken log2 fold change” value did it give?
Answer: The value was 1.84.

Question: Which “shrunken log2 fold change” value does the source give for RRIRRRPPRLPRPRPRPHAMPRP here?
Answer: Its value is 0.191.

Question: For RRIRRRPPRLPRPRPRPHCNPRP, which “shrunken log2 fold change” value is on record?
Answer: The value was -0.135.

Question: Which “shrunken log2 fold change” value does the source give for RRIRRRPPRLPRPRPRPHCYPRP here?
Answer: Its value is 0.0243.

Question: RRIRRRPPRLPRPRPRPHFDPRP was tested. Which “shrunken log2 fold change” value did it give?
Answer: The value was 0.216.

Question: How did the “shrunken log2 fold change” value turn out when RRIRRRPPRLPRPRPRPHGAPRP was run?
Answer: Its value is 0.284.

Question: For RRIRRRPPRLPRPRPRPHGDPRP, which “shrunken log2 fold change” value is on record?
Answer: The value was 0.0543.

Question: How did the “shrunken log2 fold change” value turn out when RRIRRRPPRLPRPRPRPHGPPRP was run?
Answer: Its value is 0.267.

Question: How did the “shrunken log2 fold change” value turn out when RRIRRRPPRLPRPRPRPHHCPRP was run?
Answer: The value was -0.0737.

Question: For RRIRRRPPRLPRPRPRPHHWPRP, which “shrunken log2 fold change” value is on record?
Answer: Its value is 0.0825.

Question: RRIRRRPPRLPRPRPRPHIDPRP was tested. Which “shrunken log2 fold change” value did it give?
Answer: The value was -0.43.

Question: With RRIRRRPPRLPRPRPRPHLGPRP as the sequence, how does the “shrunken log2 fold change” value read?
Answer: Its value is -0.044.

Question: For RRIRRRPPRLPRPRPRPHLKPRP, which “shrunken log2 fold change” value is on record?
Answer: Its value is -0.0915.

Question: With RRIRRRPPRLPRPRPRPHLTPRP as the sequence, how does the “shrunken log2 fold change” value read?
Answer: The value was -0.132.

Question: Which “shrunken log2 fold change” value does the source give for RRIRRRPPRLPRPRPRPHMHPRP here?
Answer: Its value is -0.083.

Question: RRIRRRPPRLPRPRPRPHMVPRP was tested. Which “shrunken log2 fold change” value did it give?
Answer: Its value is -0.355.

Question: For RRIRRRPPRLPRPRPRPHPEPRP, which “shrunken log2 fold change” value is on record?
Answer: Its value is 0.0463.
